Results: article PMC10468207

What was measured:
[1] = molecular target: kinase-dead CaMKII (K42R and D135N double mutant) with C-terminal AviTag (human) (UniProt Q9UQM7); experiment: mass photometry; 400 nM CaMKII, basal conditions; 25 mM Tris pH 8, 150 mM KCl, 1 mM TCEP; Refeyn One MP
[2] = molecular target: kinase-dead CaMKII (K42R and D135N double mutant) with C-terminal AviTag (human) (UniProt Q9UQM7); experiment: SEC; Superose 6 10/300 increase column; SEC buffer 25 mM Tris pH 8, 250 mM NaCl, 1% glycerol, 1 mM TCEP; assembly of subunits into the holoenzyme
[3] = molecular target: kinase-dead CaMKII (K42R and D135N double mutant) with C-terminal AviTag (human) (UniProt Q9UQM7); experiment: mass photometry; 400 nM CaMKII, activating conditions (8 µM CaMKII incubated with 1.5 µM Ca2+:CaM, 1 mM ATP, 2 mM MgCl2 for 5 min at room temperature, then diluted); 25 mM Tris pH 8, 150 mM KCl, 1 mM TCEP
CaMKII^F394BzF (human) = CaMKII^F394BzF (human) (UniProt Q9UQM7); experiment: SEC; Superose 6 10/300 increase column; SEC buffer 25 mM Tris pH 8, 250 mM NaCl, 1% glycerol, 1 mM TCEP; assembly of subunits into the holoenzyme

Row | stoichiometry N [1] | stoichiometry N [2] | percent in the tetramer peak [3] [%] | stoichiometry N [3] | stoichiometry N (CaMKII^F394BzF (human)) | Substance
1 | 10 | 12 | 12 | 4 | – | kinase-dead CaMKII (K42R and D135N double mutant) with C-terminal AviTag (from UniProt Q9UQM7 6-478) (enzyme)
2 | – | – | – | – | 12 | CaMKII^F394BzF (from UniProt Q9UQM7 6-478) (enzyme)
